T1: ZmUB3 (Zea mays, UniProt A0A804P0G2 1-407)
T1 sequence: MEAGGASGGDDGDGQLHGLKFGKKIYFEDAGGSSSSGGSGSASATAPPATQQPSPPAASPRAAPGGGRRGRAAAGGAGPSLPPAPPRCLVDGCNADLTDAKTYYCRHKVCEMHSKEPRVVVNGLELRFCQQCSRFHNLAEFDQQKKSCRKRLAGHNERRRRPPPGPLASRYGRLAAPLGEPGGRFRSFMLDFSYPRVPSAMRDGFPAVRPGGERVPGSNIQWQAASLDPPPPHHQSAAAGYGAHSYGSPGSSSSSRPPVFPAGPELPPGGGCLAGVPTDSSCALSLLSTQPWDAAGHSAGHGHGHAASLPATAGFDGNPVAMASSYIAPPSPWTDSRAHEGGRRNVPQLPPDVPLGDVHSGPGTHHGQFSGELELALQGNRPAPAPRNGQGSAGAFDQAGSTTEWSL


How the values were obtained:
ZmUB3 = target: T1, ZmUB3; experiment: EMSA
ZmMYB42 = ZmMYB42 (Zea mays, UniProt K7V4N7 1-264); experiment: EMSA

Binder | binding result (ZmUB3) | binding result (ZmMYB42)
ZmMYB63 promoter GTAC 40 bp probe (dsDNA) DNA 1: AAGTTTTGCGCACAGTGGTACGGAGGCGGACTGCTCCAAT DNA 2: ATTGGAGCAGTCCGCCTCCGTACCACTGTGCGCAAAACTT | binds | –
ZmSWEET13c MBS 40 bp probe (dsDNA) DNA 1: ATGCTGTATTGAGTCCCCCGTTGTCGGAAATTAAAATTAT DNA 2: ATAATTTTAATTTCCGACAACGGGGGACTCAATACAGCAT | – | binds
ZmLHT14 MBS 40 bp probe (dsDNA) DNA 1: GCGGTGCCGGAGTAGATAACTGGTACTACAAAACACAATA DNA 2: TATTGTGTTTTGTAGTACCAGTTATCTACTCCGGCACCGC | – | binds
ZmMYB42 promoter GTAC 40 bp probe (dsDNA) DNA 1: TAACAAGGGCTTAACATGGTACGGTTTATTATATGTCAGA DNA 2: TCTGACATATAATAAACCGTACCATGTTAAGCCCTTGTTA | binds | –
ZmSWEET10 MBS 40 bp probe (dsDNA) DNA 1: TCCCGGCCCTGTGCTGATAACTGTCTCTCTTTATTACGTG DNA 2: CACGTAATAAAGAGAGACAGTTATCAGCACAGGGCCGGGA | – | binds

Reference: paper PMC11772326
